Reference: PMC11746035 (Frontiers in Immunology, 2024)

Target: T1, SARS-CoV-2 WT RBD (SARS-CoV-2, WT (ancestral) strain, UniProt P0DTC2)
T1 construct: also called wild-type L452 RBD
Experiment: BLI; antibody (IgG1, 11 μg/mL) loaded on AHC2 biosensor to about 1.5 nm; RBD in solution, association 300 s, dissociation 600 s; PBS-TB (PBS, 0.02% v/v Tween-20, 0.1% w/v BSA); 25°C; 1,000 rpm; binding response less than 0.1 considered non-binding
Settings: both partners purified

B1: LY-CoV1404 (antibody, V domains shown)
VH: QITLKESGPTLVKPTQTLTLTCTFSGFSLSISGVGVGWLRQPPGKALEWLALIYWDDDKRYSPSLKSRLTISKDTSKNQVVLKMTNIDPVDTATYYCAHHSISTIFDHWGQGTLVTVSS
VL: QSALTQPASVSGSPGQSITISCTATSSDVGDYNYVSWYQQHPGKAPKLMIFEVSDRPSGISNRFSGSKSGNTASLTISGLQAEDEADYYCSSYTTSSAVFGGGTKLTVL
notes: heavy chain of LY-CoV1404 (IGHV2-5*02, D56), not modified; variable region in PDB 7MMO; light chain of LY-CoV1404; IgG1; source: Expi 293, transfected, purified (protein A)
- binding result: binds

B2: XGv-265 (antibody, V domains shown)
VH: QITLKESGPTLVKPTQTLTLTCNFSGFSLNTYGVGVGWIRQPPGKALEWLALIYWDGDERYGPFFKNKVTIAKDTSKNQVVLTMTNMDPVDTATYYCARHLIPTIFDYWGQGTLVTVSS
VL: QSALTQPASVSGSPGQSITISCTGTSSDVGGSNYVSWYQHHPDRAPKLLIYEVTNRPSGVSNRFSGSKSANTASLTISGLQAEDEADYYCSSYTTTSTHILFGGGTKLTV
notes: heavy chain of XGv-265 (IGHV2-5*02, D56), not modified; light chain of XGv-265; IgG1; source: Expi 293, transfected, purified (protein A)
- binding result: binds

B3: BD57-028 (antibody, V domains shown)
VH: QITLKESGPTLVKPTQTLTLTCTFSGFSLSASGEGMGWIRQPPGKALEWLALIYWDADERYSPSLRSRLTITKDTSKNQVVLKMTNMNPVDTATYYCAHHSITTVVDYWGQGMLVTVSS
VL: QSALTQPASVSGSPGQSITISCTGTISDVGAFNYVSWYQQHPGRAPKLIIYDVSTRPSGISIRFSGSKSGNTASLTISGLQPEDEADYYCSSYSHTSLVFGTGTKVTVL
notes: heavy chain of BD57-028 (IGHV2-5*02, D56), not modified; light chain of BD57-028; IgG1; source: Expi 293, transfected, purified (protein A)
- binding result: binds

B4: BD56-595 (antibody, V domains shown)
VH: QITLKESGPTLVKPTQTLTLTCTFSGFSITTAGVGVGWIRQPPGKALEWLALIYWDGDRRYSPSLKNRVDITTDISKNQVVLTMTNMAPVDTATYYCAQHTIDMILDYWGQGTLVTVSS
VL: QSALTQPPSASGSPGQSVTISCTATSSDVGAYNYVSWYQQHPGKAPKLMIYEVNKRPSGVPDRFSGSKSGNTASLTVSGLQAEDEADYYCSSYTDNIVFGTGTRVTVL
notes: heavy chain of BD56-595 (IGHV2-5*02, D56), not modified; light chain of BD56-595; IgG1; source: Expi 293, transfected, purified (protein A)
- binding result: binds

B5: BD56-1290 (antibody, V domains shown)
VH: QITLKESGPTLVKPTQTLTLTCTFSGFSLSTSGVGVGWIRQPPGKALEWLALIYWDDDSRYSPSLKTRLTITKDTSKNQVVLTLTNMDPVDTATYYCGHFTIDMIVGYWGQGTLVTVSS
VL: QSALTQPASVSGSPGQSITISCTATSIDVGAFHYVSWYQHHPGKAPKLIIFDVTNRPSGVSNRFSGSKSGNTASLTISGLQAEDEADYYCSSYTDSTVVFGGGTKLTVL
notes: heavy chain of BD56-1290 (IGHV2-5*02, D56), not modified; light chain of BD56-1290; IgG1; source: Expi 293, transfected, purified (protein A)
- binding result: binds
